Results on one molecule are retold here after publication PMC12851022 (2025).

The target of assay [1] is T1, VHL (Homo sapiens, UniProt P40337). Description: FRET.
The target in assay [2] is T1, VHL. The assay can be described thus: Alpha assay.

T1 sequence (P40337 whole entry): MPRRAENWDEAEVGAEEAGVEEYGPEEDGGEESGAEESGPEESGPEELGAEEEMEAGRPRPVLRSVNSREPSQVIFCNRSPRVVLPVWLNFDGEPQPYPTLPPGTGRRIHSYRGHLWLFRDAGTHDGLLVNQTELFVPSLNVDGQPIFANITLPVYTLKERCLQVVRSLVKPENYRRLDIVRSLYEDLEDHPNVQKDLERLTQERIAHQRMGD

B1: USP39 (protein)
chain: MSGRSKRESRGSTRGKRESESRGSSGRVKRERDREREPEAASSRGSPVRVKREFEPASAREAPASVVPFVRVKREREVDEDSEPEREVRAKNGRVDSEDRRSRHCPYLDTINRSVLDFDFEKLCSISLSHINAYACLVCGKYFQGRGLKSHAYIHSVQFSHHVFLNLHTLKFYCLPDNYEIIDSSLEDITYVLKPTFTKQQIANLDKQAKLSRAYDGTTYLPGIVGLNNIKANDYANAVLQALSNVPPLRNYFLEEDNYKNIKRPPGDIMFLLVQRFGELMRKLWNPRNFKAHVSPHEMLQAVVLCSKKTFQITKQGDGVDFLSWFLNALHSALGGTKKKKKTIVTDVFQGSMRIFTKKLPHPDLPAEEKEQLLHNDEYQETMVESTFMYLTLDLPTAPLYKDEKEQLIIPQVPLFNILAKFNGITEKEYKTYKENFLKRFQLTKLPPYLIFCIKRFTKNNFFVEKNPTIVNFPITNVDLREYLSEEVQAVHKNTTYDLIANIVHDGKPSEGSYRIHVLHHGTGKWYELQDLQVTDILPQMITLSEAYIQIWKRRDNDETNQQGA
modifications: USP39_PROTAC_V1
Take B1: the Kd in assay [1] amounted to 12 nM; in assay [2], 232 nM.

In general, Kd refers to a measure of binding affinity in units of concentration. A lower Kd goes with a tighter complex.
